How the values were obtained:
[1] = substrate: T1, BSSαγ complex (UniProt O68395)
T1 sequence 1: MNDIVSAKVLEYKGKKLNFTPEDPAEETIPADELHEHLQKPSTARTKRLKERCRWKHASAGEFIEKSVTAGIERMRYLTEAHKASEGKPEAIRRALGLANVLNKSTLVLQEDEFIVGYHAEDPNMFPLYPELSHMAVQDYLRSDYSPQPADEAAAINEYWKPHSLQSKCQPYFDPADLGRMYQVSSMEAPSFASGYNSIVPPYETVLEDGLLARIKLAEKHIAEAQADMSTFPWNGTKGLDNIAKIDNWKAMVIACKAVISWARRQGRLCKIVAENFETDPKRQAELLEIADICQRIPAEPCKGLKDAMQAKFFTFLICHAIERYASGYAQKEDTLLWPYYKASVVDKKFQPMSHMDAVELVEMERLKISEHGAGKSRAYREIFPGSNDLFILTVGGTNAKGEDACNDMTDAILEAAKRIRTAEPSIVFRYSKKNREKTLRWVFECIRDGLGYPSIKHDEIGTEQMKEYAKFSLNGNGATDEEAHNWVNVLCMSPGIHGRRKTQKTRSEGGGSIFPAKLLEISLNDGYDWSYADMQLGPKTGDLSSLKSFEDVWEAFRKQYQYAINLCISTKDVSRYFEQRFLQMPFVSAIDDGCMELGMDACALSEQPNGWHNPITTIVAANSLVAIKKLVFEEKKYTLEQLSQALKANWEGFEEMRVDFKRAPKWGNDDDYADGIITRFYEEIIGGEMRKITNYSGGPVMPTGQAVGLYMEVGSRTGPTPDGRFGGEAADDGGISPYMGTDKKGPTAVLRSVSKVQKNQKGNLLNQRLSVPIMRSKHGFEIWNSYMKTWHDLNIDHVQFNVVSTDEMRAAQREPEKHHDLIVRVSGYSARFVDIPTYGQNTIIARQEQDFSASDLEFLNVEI
T1 sequence 2: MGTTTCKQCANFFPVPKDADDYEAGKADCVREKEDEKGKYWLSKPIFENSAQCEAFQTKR

In the case of “4-isopropylbenzylsuccinate synthase activating enzyme (IbsAE)”, the AdoMet cleavage by as purified IbsAE with IBSSαγ added (dAdo by LCMS, 2 h endpoint, n = 3); 1.1 μM dAdo without IBSSαγ (IBSSαγ complex) is reported as 47.6 μM dAdo and the AdoMet cleavage by reconstituted IbsAE with IBSSαγ added (dAdo by LCMS, 2 h endpoint, n = 3); 1.4 μM dAdo without IBSSαγ (IBSSαγ complex) is reported as 46.7 μM dAdo.

Molecule “4-isopropylbenzylsuccinate synthase beta subunit (IBSSβ), affinity tag removed (from UniProt A0A096ZP03 1-73) (natural protein)” has an AdoMet cleavage by as purified IbsAE with IBSSαγ and IBSSβ added (dAdo by LCMS, 2 h endpoint, n = 3); 47.6 μM dAdo without IBSSβ (IBSSαγ complex) of 7.2 μM dAdo and an AdoMet cleavage by reconstituted IbsAE with IBSSαγ and IBSSβ added (dAdo by LCMS, 2 h endpoint, n = 3); 46.7 μM dAdo without IBSSβ (IBSSαγ complex) of 5.4 μM dAdo.

B1: Benzylsuccinate synthase beta subunit (BSSβ), affinity tag removed (natural protein)
chain: MEGSNMETGQNLQNQPHTEVGTARPCRSCKWQTPDPTDPHRGQCTANRHAMGGVWKRWLRDVENTTCSRHEEGKLSFRDHV
Molecule B1 has a benzylsuccinate formed from fumarate and toluene by activated BSSαγ (40 μM) with BSSβ (40 μM) added (assay yield by QToF-LCMS, n = 9); 0.7% without BSSβ (% assay yield) [1] of 92.3.
